Source: patent US20160272693A1 (ZEALAND PHARMA A S, published 2016)
*1 amine or outer side, *2 acyl side, *3 side chain or, on linkers, in order; H or OH if unused. Bridges are numbered along the chain shown (N, C = ends). [ ]: non-standard residue; d: D form. The star is where a group is joined. C20 diacid = O=C(O)CCCCCCCCCCCCCCCCCCC(=O)*; γGlu = O=C(O)[C@H](CCC(=O)[*:2])N[*:1]; Hyp = O=C(O)[C@@H]1C[C@@H](O)CN1; NMeI = CC[C@H](C)[C@H](NC)C(=O)O; Aad = N[C@@H](CCCC(=O)O)C(=O)O; Sar = CNCC(=O)O

Target: T1, human amylin receptor 3 (hAMYR3), hCTR2 co-expressed with human receptor activity modifying protein 3 (hRAMP3) (human, UniProt P30988 25-474; O60896 24-148)
T1 sequence (looked up) 1: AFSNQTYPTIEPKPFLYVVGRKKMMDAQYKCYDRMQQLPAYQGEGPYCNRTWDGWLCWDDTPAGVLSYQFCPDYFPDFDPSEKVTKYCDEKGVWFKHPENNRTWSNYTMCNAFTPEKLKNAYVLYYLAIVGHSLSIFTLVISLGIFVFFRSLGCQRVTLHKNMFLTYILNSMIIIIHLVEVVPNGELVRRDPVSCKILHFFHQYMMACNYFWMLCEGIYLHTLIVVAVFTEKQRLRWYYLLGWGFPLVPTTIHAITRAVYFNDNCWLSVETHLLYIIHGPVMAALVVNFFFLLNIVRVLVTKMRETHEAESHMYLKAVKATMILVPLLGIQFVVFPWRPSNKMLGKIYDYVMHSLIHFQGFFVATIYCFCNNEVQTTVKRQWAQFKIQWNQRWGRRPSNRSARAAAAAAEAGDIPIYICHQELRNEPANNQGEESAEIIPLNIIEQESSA
T1 sequence (looked up) 2: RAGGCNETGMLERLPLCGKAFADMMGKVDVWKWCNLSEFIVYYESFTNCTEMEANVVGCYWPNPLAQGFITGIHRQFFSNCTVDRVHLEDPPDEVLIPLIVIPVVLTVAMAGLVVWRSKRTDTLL
Assay: cell-based or functional assay

Row | Binder | hAMYR3 EC50 (nM); cAMP induction
1 | {C20 diacid-γGlu}-RCNTATCATQRLA[Aad]FLQRSSF[Sar]A[NMeI]LSSTEVGSNT[Hyp]-NH2 (disulfide 2-7; SMILES CC[C@H](C)[C@@H](C(=O)N[C@@H](CC(C)C)C(=O)N[C@@H](CO)C(=O)N[C@@H](CO)C(=O)N[C@H](C(=O)N[C@@H](CCC(=O)O)C(=O)N[C@H](C(=O)NCC(=O)N[C@@H](CO)C(=O)N[C@@H](CC(N)=O)C(=O)N[C@H](C(=O)N1C[C@H](O)C[C@H]1C(N)=O)[C@@H](C)O)C(C)C)[C@@H](C)O)N(C)C(=O)[C@H](C)NC(=O)CN(C)C(=O)[C@H](Cc1ccccc1)NC(=O)[C@H](CO)NC(=O)[C@H](CO)NC(=O)[C@H](CCCNC(=N)N)NC(=O)[C@H](CCC(N)=O)NC(=O)[C@H](CC(C)C)NC(=O)[C@H](Cc1ccccc1)NC(=O)[C@H](CCCC(=O)O)NC(=O)[C@H](C)NC(=O)[C@H](CC(C)C)NC(=O)[C@H](CCCNC(=N)N)NC(=O)[C@H](CCC(N)=O)NC(=O)[C@@H](NC(=O)[C@H](C)NC(=O)[C@@H]1CSSC[C@H](NC(=O)[C@H](CCCNC(=N)N)NC(=O)CC[C@H](NC(=O)CCCCCCCCCCCCCCCCCCC(=O)O)C(=O)O)C(=O)N[C@@H](CC(N)=O)C(=O)N[C@@H]([C@@H](C)O)C(=O)N[C@@H](C)C(=O)N[C@@H]([C@@H](C)O)C(=O)N1)[C@@H](C)O) [[19CD]-isoGlu-R-C( )-NTAT-C( )-ATQRLA-Aad-FLQRSSF-Gly(Me)-A-Ile(Me)-LSSTEVGSNT-Hyp-NH2 (Compd. 86)] | 0.15 nM
2 | {C20 diacid}-[γGlu]RCGTATCATERLAHFLTRSSF[Sar]A[NMeI]LSSTEVGSST[Hyp]-NH2 (disulfide 3-8) [[19CD]-isoGlu-R-C( )-GTAT-C( )-ATERLAHFLTRSSF-Gly(Me)-A-Ile(Me)-LSSTEVGSST-Hyp-NH2 (Compd. 9)] | 0.29 nM
3 | {C20 diacid}-[γGlu]RCNTATCATQRLAHFLQRSSF[Sar]A[NMeI]LSSTEVGSSTP-NH2 (disulfide 3-8; SMILES CC[C@H](C)[C@@H](C(=O)N[C@@H](CC(C)C)C(=O)N[C@@H](CO)C(=O)N[C@@H](CO)C(=O)N[C@H](C(=O)N[C@@H](CCC(=O)O)C(=O)N[C@H](C(=O)NCC(=O)N[C@@H](CO)C(=O)N[C@@H](CO)C(=O)N[C@H](C(=O)N1CCC[C@H]1C(N)=O)[C@@H](C)O)C(C)C)[C@@H](C)O)N(C)C(=O)[C@H](C)NC(=O)CN(C)C(=O)[C@H](Cc1ccccc1)NC(=O)[C@H](CO)NC(=O)[C@H](CO)NC(=O)[C@H](CCCNC(=N)N)NC(=O)[C@H](CCC(N)=O)NC(=O)[C@H](CC(C)C)NC(=O)[C@H](Cc1ccccc1)NC(=O)[C@H](Cc1c[nH]cn1)NC(=O)[C@H](C)NC(=O)[C@H](CC(C)C)NC(=O)[C@H](CCCNC(=N)N)NC(=O)[C@H](CCC(N)=O)NC(=O)[C@@H](NC(=O)[C@H](C)NC(=O)[C@@H]1CSSC[C@H](NC(=O)[C@H](CCCNC(=N)N)NC(=O)CC[C@H](NC(=O)CCCCCCCCCCCCCCCCCCC(=O)O)C(=O)O)C(=O)N[C@@H](CC(N)=O)C(=O)N[C@@H]([C@@H](C)O)C(=O)N[C@@H](C)C(=O)N[C@@H]([C@@H](C)O)C(=O)N1)[C@@H](C)O) [[19CD]-isoGlu-R-C( )-NTAT-C( )-ATQRLAHFLQRSSF-Gly(Me)-A-Ile(Me)-LSSTEVGSSTP-NH2 (Compd. 85)] | 0.14 nM
4 | {C20 diacid-γGlu}-RCQTATCATERLAHFLQRSSF[Sar]A[NMeI]LSSTEVGSGT[Hyp]-NH2 (disulfide 2-7) [[19CD]-isoGlu-R-C( )-QTAT-C( )-ATERLAHFLQRSSF-Gly(Me)-A-Ile(Me)-LSSTEVGSGT-Hyp-NH2 (Compd. 90)] | 0.24 nM
5 | {C20 diacid-γGlu}-RCNTATCATQRLAHFLERSSF[Sar]A[NMeI]LSSTEVGSSTP-NH2 (disulfide 2-7; SMILES CC[C@H](C)[C@@H](C(=O)N[C@@H](CC(C)C)C(=O)N[C@@H](CO)C(=O)N[C@@H](CO)C(=O)N[C@H](C(=O)N[C@@H](CCC(=O)O)C(=O)N[C@H](C(=O)NCC(=O)N[C@@H](CO)C(=O)N[C@@H](CO)C(=O)N[C@H](C(=O)N1CCC[C@H]1C(N)=O)[C@@H](C)O)C(C)C)[C@@H](C)O)N(C)C(=O)[C@H](C)NC(=O)CN(C)C(=O)[C@H](Cc1ccccc1)NC(=O)[C@H](CO)NC(=O)[C@H](CO)NC(=O)[C@H](CCCNC(=N)N)NC(=O)[C@H](CCC(=O)O)NC(=O)[C@H](CC(C)C)NC(=O)[C@H](Cc1ccccc1)NC(=O)[C@H](Cc1c[nH]cn1)NC(=O)[C@H](C)NC(=O)[C@H](CC(C)C)NC(=O)[C@H](CCCNC(=N)N)NC(=O)[C@H](CCC(N)=O)NC(=O)[C@@H](NC(=O)[C@H](C)NC(=O)[C@@H]1CSSC[C@H](NC(=O)[C@H](CCCNC(=N)N)NC(=O)CC[C@H](NC(=O)CCCCCCCCCCCCCCCCCCC(=O)O)C(=O)O)C(=O)N[C@@H](CC(N)=O)C(=O)N[C@@H]([C@@H](C)O)C(=O)N[C@@H](C)C(=O)N[C@@H]([C@@H](C)O)C(=O)N1)[C@@H](C)O) [[19CD]-isoGlu-R-C( )-NTAT-C( )-ATQRLAHFLERSSF-Gly(Me)-A-Ile(Me)-LSSTEVGSSTP-NH2 (Compd. 84)] | 0.54 nM
6 | {C20 diacid-γGlu}-RCNTATCATQRLADFLQRSSF[Sar]A[NMeI]LSSTEVGSTTP-NH2 (disulfide 2-7; SMILES CC[C@H](C)[C@@H](C(=O)N[C@@H](CC(C)C)C(=O)N[C@@H](CO)C(=O)N[C@@H](CO)C(=O)N[C@H](C(=O)N[C@@H](CCC(=O)O)C(=O)N[C@H](C(=O)NCC(=O)N[C@@H](CO)C(=O)N[C@H](C(=O)N[C@H](C(=O)N1CCC[C@H]1C(N)=O)[C@@H](C)O)[C@@H](C)O)C(C)C)[C@@H](C)O)N(C)C(=O)[C@H](C)NC(=O)CN(C)C(=O)[C@H](Cc1ccccc1)NC(=O)[C@H](CO)NC(=O)[C@H](CO)NC(=O)[C@H](CCCNC(=N)N)NC(=O)[C@H](CCC(N)=O)NC(=O)[C@H](CC(C)C)NC(=O)[C@H](Cc1ccccc1)NC(=O)[C@H](CC(=O)O)NC(=O)[C@H](C)NC(=O)[C@H](CC(C)C)NC(=O)[C@H](CCCNC(=N)N)NC(=O)[C@H](CCC(N)=O)NC(=O)[C@@H](NC(=O)[C@H](C)NC(=O)[C@@H]1CSSC[C@H](NC(=O)[C@H](CCCNC(=N)N)NC(=O)CC[C@H](NC(=O)CCCCCCCCCCCCCCCCCCC(=O)O)C(=O)O)C(=O)N[C@@H](CC(N)=O)C(=O)N[C@@H]([C@@H](C)O)C(=O)N[C@@H](C)C(=O)N[C@@H]([C@@H](C)O)C(=O)N1)[C@@H](C)O) [[19CD]-isoGlu-R-C( )-NTAT-C( )-ATQRLADFLQRSSF-Gly(Me)-A-Ile(Me)-LSSTEVGSTTP-NH2 (Compd. 82)] | 0.53 nM
7 | {C20 diacid-γGlu}-RCNTATCATQRLADFLQRSSF[Sar]A[NMeI]LSSTEVGSTT[Hyp]-NH2 (disulfide 2-7; SMILES CC[C@H](C)[C@@H](C(=O)N[C@@H](CC(C)C)C(=O)N[C@@H](CO)C(=O)N[C@@H](CO)C(=O)N[C@H](C(=O)N[C@@H](CCC(=O)O)C(=O)N[C@H](C(=O)NCC(=O)N[C@@H](CO)C(=O)N[C@H](C(=O)N[C@H](C(=O)N1C[C@H](O)C[C@H]1C(N)=O)[C@@H](C)O)[C@@H](C)O)C(C)C)[C@@H](C)O)N(C)C(=O)[C@H](C)NC(=O)CN(C)C(=O)[C@H](Cc1ccccc1)NC(=O)[C@H](CO)NC(=O)[C@H](CO)NC(=O)[C@H](CCCNC(=N)N)NC(=O)[C@H](CCC(N)=O)NC(=O)[C@H](CC(C)C)NC(=O)[C@H](Cc1ccccc1)NC(=O)[C@H](CC(=O)O)NC(=O)[C@H](C)NC(=O)[C@H](CC(C)C)NC(=O)[C@H](CCCNC(=N)N)NC(=O)[C@H](CCC(N)=O)NC(=O)[C@@H](NC(=O)[C@H](C)NC(=O)[C@@H]1CSSC[C@H](NC(=O)[C@H](CCCNC(=N)N)NC(=O)CC[C@H](NC(=O)CCCCCCCCCCCCCCCCCCC(=O)O)C(=O)O)C(=O)N[C@@H](CC(N)=O)C(=O)N[C@@H]([C@@H](C)O)C(=O)N[C@@H](C)C(=O)N[C@@H]([C@@H](C)O)C(=O)N1)[C@@H](C)O) [[19CD]-isoGlu-R-C( )-NTAT-C( )-ATQRLADFLQRSSF-Gly(Me)-A-Ile(Me)-LSSTEVGSTT-Hyp-NH2 (Compd. 83)] | 0.32 nM
8 | {C20 diacid-γGlu}-RCNTATCATQRLA[Aad]FLQRSSF[Sar]A[NMeI]LSSTEVGSST[Hyp]-NH2 (disulfide 2-7; SMILES CC[C@H](C)[C@@H](C(=O)N[C@@H](CC(C)C)C(=O)N[C@@H](CO)C(=O)N[C@@H](CO)C(=O)N[C@H](C(=O)N[C@@H](CCC(=O)O)C(=O)N[C@H](C(=O)NCC(=O)N[C@@H](CO)C(=O)N[C@@H](CO)C(=O)N[C@H](C(=O)N1C[C@H](O)C[C@H]1C(N)=O)[C@@H](C)O)C(C)C)[C@@H](C)O)N(C)C(=O)[C@H](C)NC(=O)CN(C)C(=O)[C@H](Cc1ccccc1)NC(=O)[C@H](CO)NC(=O)[C@H](CO)NC(=O)[C@H](CCCNC(=N)N)NC(=O)[C@H](CCC(N)=O)NC(=O)[C@H](CC(C)C)NC(=O)[C@H](Cc1ccccc1)NC(=O)[C@H](CCCC(=O)O)NC(=O)[C@H](C)NC(=O)[C@H](CC(C)C)NC(=O)[C@H](CCCNC(=N)N)NC(=O)[C@H](CCC(N)=O)NC(=O)[C@@H](NC(=O)[C@H](C)NC(=O)[C@@H]1CSSC[C@H](NC(=O)[C@H](CCCNC(=N)N)NC(=O)CC[C@H](NC(=O)CCCCCCCCCCCCCCCCCCC(=O)O)C(=O)O)C(=O)N[C@@H](CC(N)=O)C(=O)N[C@@H]([C@@H](C)O)C(=O)N[C@@H](C)C(=O)N[C@@H]([C@@H](C)O)C(=O)N1)[C@@H](C)O) [[19CD]-isoGlu-R-C( )-NTAT-C( )-ATQRLA-Aad-FLQRSSF-Gly(Me)-A-Ile(Me)-LSSTEVGSST-Hyp-NH2 (Compd. 87)] | 0.13 nM
